Biological target: Recombinant human serum albumin (human, UniProt P02768 25-609)
Assay: SPR (BIACORE 3000), recombinant HSA immobilized on CM5 chip
Experimental: To measure the binding affinities of the ABD-fused insulin analogue proteins for albumin, a surface plasmon resonance (SPR, BIACORE 3000, GE healthcare) analysis method was used. Recombinant human serum albumin was immobilized on a CM5 chip by an amine coupling method, and the ABD or ABD-fused insulin analogues diluted to five or more concentrations were bound thereto, and the affinities thereof for the human serum albumin were measured.

Chain of Recombinant human serum albumin (P02768 25-609 limits assumed): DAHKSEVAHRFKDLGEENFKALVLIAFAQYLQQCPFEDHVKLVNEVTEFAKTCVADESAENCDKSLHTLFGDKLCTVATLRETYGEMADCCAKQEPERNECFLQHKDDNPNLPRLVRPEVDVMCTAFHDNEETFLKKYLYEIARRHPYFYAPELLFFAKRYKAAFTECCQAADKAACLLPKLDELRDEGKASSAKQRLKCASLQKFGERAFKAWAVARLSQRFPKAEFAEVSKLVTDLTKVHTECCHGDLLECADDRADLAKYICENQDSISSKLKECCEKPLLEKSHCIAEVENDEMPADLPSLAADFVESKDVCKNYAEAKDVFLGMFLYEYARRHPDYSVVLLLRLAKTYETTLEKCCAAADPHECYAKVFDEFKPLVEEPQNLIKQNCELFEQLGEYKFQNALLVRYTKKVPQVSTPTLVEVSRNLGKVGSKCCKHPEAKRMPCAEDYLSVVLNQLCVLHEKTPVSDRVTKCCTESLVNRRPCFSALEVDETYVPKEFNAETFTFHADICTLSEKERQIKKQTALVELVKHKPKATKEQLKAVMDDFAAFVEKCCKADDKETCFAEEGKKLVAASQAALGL

In the case of LAEAKEAANAELDSYGVSDFYKKLIDKAKTVEGVEALKDAILAALP (designed binder) [albumin-binding domain (ABD)], the Kd is reported as 7.29 pM, the koff is reported as 2.41e-05 s⁻¹ and the kon is reported as 5.93e+06 M⁻¹ s⁻¹.

— US20210309710A1 (DAEWOONG PHARMACEUTICAL, published 2021)
